In article PMC3250484, “Molecular Networks in FGF Signaling: Flotillin-1 and Cbl-Associated Protein Compete for the Binding to Fibroblast Growth Factor Receptor Substrate 2” (PLoS ONE, 2012):

Assays:
[1] = molecular target: T1, FRS2-His (UniProt Q8WU20 1-508); assay: pull-down; GST fusion immobilised on sepharose beads, purified FRS2-His in solution; 5 µg of the purified proteins, on ice 3 h; wash 50 mM Tris-HCl pH 7.5, 150 mM NaCl, 1 mM EDTA, 1 mM DTT, 0.01% Triton X-100; anti-His blot; conditions: both partners purified
T1 construct: called one of the 'FL proteins' in the results; The vector pSCherry2 (Eurogentec) may add a Cherry carrier besides the His tag (surmise); also called His-tagged FRS2; purified FRS2-His; source: E. coli SE1, purified (Ni-NTA, dialysis)
T1 sequence (looked up): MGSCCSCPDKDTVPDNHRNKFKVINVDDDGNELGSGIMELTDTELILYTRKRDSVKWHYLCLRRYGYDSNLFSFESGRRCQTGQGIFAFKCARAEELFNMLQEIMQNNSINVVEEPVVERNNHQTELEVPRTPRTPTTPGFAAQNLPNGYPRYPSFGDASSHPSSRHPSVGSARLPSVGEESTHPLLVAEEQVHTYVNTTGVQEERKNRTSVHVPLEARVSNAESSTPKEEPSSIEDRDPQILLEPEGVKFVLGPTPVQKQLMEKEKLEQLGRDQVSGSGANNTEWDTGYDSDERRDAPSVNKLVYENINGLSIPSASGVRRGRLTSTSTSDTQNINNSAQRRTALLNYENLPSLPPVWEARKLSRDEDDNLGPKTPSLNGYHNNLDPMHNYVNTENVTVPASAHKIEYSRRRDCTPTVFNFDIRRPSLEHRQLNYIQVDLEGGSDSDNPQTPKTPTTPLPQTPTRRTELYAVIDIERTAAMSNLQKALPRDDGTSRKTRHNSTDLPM

[2] = molecular target: T2, FL Flot-1-GST (Rattus norvegicus (Rat), UniProt Q9Z1E1-1); assay: GST pulldown
T2 chain: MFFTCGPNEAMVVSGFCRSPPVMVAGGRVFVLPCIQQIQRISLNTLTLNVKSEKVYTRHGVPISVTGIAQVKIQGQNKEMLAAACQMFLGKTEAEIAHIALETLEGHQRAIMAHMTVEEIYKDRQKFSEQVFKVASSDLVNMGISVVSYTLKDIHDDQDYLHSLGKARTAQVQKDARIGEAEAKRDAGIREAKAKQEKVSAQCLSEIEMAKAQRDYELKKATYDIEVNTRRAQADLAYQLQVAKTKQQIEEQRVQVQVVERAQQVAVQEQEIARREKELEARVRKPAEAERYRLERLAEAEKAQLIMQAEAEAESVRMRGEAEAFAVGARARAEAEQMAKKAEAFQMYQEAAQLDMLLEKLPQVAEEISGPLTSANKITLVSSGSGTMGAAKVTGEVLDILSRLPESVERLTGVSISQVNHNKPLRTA

[3] = molecular target: T3, Flot-1-CT-GST (Rattus norvegicus (Rat), UniProt Q9Z1E1); assay: GST pulldown
T3 chain: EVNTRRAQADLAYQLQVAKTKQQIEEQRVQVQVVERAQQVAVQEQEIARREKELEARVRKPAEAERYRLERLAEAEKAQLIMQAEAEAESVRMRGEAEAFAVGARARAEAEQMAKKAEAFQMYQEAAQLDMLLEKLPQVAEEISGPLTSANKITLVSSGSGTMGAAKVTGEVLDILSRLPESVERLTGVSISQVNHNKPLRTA

B1: FL Flot-1-GST (natural protein, rat, UniProt Q9Z1E1-1 1-428, looked up)
chain: MFFTCGPNEAMVVSGFCRSPPVMVAGGRVFVLPCIQQIQRISLNTLTLNVKSEKVYTRHGVPISVTGIAQVKIQGQNKEMLAAACQMFLGKTEAEIAHIALETLEGHQRAIMAHMTVEEIYKDRQKFSEQVFKVASSDLVNMGISVVSYTLKDIHDDQDYLHSLGKARTAQVQKDARIGEAEAKRDAGIREAKAKQEKVSAQCLSEIEMAKAQRDYELKKATYDIEVNTRRAQADLAYQLQVAKTKQQIEEQRVQVQVVERAQQVAVQEQEIARREKELEARVRKPAEAERYRLERLAEAEKAQLIMQAEAEAESVRMRGEAEAFAVGARARAEAEQMAKKAEAFQMYQEAAQLDMLLEKLPQVAEEISGPLTSANKITLVSSGSGTMGAAKVTGEVLDILSRLPESVERLTGVSISQVNHNKPLRTA
notes: Rat flotillin-1 in pET41a, full length; pET41a adds further N-terminal tags besides GST (surmise from the vector); also called flot-1-FL-GST
B1: binds [1].

B2: FRS2-His (protein)
chain: MGSCCSCPDKDTVPDNHRNKFKVINVDDDGNELGSGIMELTDTELILYTRKRDSVKWHYLCLRRYGYDSNLFSFESGRRCQTGQGIFAFKCARAEELFNMLQEIMQNNSINVVEEPVVERNNHQTELEVPRTPRTPTTPGFAAQNLPNGYPRYPSFGDASSHPSSRHPSVGSARLPSVGEESTHPLLVAEEQVHTYVNTTGVQEERKNRTSVHVPLEARVSNAESSTPKEEPSSIEDRDPQILLEPEGVKFVLGPTPVQKQLMEKEKLEQLGRDQVSGSGANNTEWDTGYDSDERRDAPSVNKLVYENINGLSIPSASGVRRGRLTSTSTSDTQNINNSAQRRTALLNYENLPSLPPVWEARKLSRDEDDNLGPKTPSLNGYHNNLDPMHNYVNTENVTVPASAHKIEYSRRRDCTPTVFNFDIRRPSLEHRQLNYIQVDLEGGSDSDNPQTPKTPTTPLPQTPTRRTELYAVIDIERTAAMSNLQKALPRDDGTSRKTRHNSTDLPM
B2: binds [2]; binds [3].
